Substitutions are numbered along the chain they refer to. Numbers in names are those of the source.

As usually defined, the IC50 is the concentration at which inhibition is half-maximal.

The chains are these.
B1: Par0067 IgG (antibody, V domains shown)
VH: EVQLLESGGGLVQPGGSLRLSCAASGFTFSSYAMNWVRQAPGKGLEWVSTISYSGSLISYADSVKGRFTISRDNSKNTLYLQMNSLRAEDTAVYYCARINNDPMDVWGQGTLVTVSS
VL: SIELTQPPSVSVSPGQTASITCSGDNLGKKYVQWYQQKPGQSPVLVIYDDSNRPSGIPERFSGSNSGNTATLTISGTQAMDEADYYCQTWDGNPTTGETNVFGGGTKLTVL
notes: IgG1-TM (L234F, L235E, P331S), human lambda light chain; also called ZZ15D2-D02; parent Par0067 IgG
B2: PaB670142 IgG (antibody, V domains shown)
VH: B1 VH with N100H, N101H
VL: B1 VL with T96H
notes: IgG1-TM (L234F, L235E, P331S), human lambda light chain
B3: PaB670146 IgG (antibody, V domains shown)
VH: B1 VH with N101H
VL: B1 VL with Q88H, D91H, G92H, N93H, T96H, T99H
notes: as for B2
B4: PaB670158 IgG (antibody, V domains shown)
VH: B1 VH with S54H, S56H, L57H, V64H, K65H, G66H
VL: B1 VL with N93H, P94H, T95H, V101H
notes: as for B2
B5: PaB670157 IgG (antibody, V domains shown)
VH: B1 VH with N100H, N101H
VL: B1 VL with N93H, P94H, T95H, V101H
notes: as for B2
B6: PaB670141 IgG (antibody, V domains shown)
VH: B1 VH with N101H
VL: B1 VL with T96H
notes: as for B2
B7: PaB670048 IgG (antibody, V domains shown)
VH: B1 VH with N100H, N101H, V106H
VL: B1 VL
notes: IgG1-TM (L234F, L235E, P331S), human lambda light chain; also called ZZ1KX4-E11
B8: PaB670162 IgG (antibody, V domains shown)
VH: B1 VH with S54H, S56H, L57H, V64H, K65H, G66H
VL: B1 VL with Q88H, N93H, P94H, V101H
notes: as for B2
B9: PaB670151 IgG (antibody, V domains shown)
VH: B1 VH with N101H
VL: B1 VL with Q88H, G92H, N93H, P94H, T99H
notes: as for B2
B10: PaB670045 IgG (antibody, V domains shown)
VH: B1 VH with N100H, N101H
VL: B1 VL
notes: IgG1-TM (L234F, L235E, P331S), human lambda light chain; also called ZZ1KX3-F01
B11: PaB670161 IgG (antibody, V domains shown)
VH: B1 VH with N100H, N101H
VL: B1 VL with Q88H, N93H, P94H, V101H
notes: as for B2
B12: PaB670144 IgG (antibody, V domains shown)
VH: B1 VH with S54H, S56H, L57H, V64H, K65H, G66H, N101H
VL: B1 VL with T96H
notes: as for B2
B13: PaB670152 IgG (antibody, V domains shown)
VH: B1 VH with N100H, N101H
VL: B1 VL with Q88H, G92H, N93H, P94H, T99H
notes: as for B2
B14: PaB670160 IgG (antibody, V domains shown)
VH: B1 VH with N101H
VL: B1 VL with Q88H, N93H, P94H, V101H
notes: as for B2
B15: PaB670148 IgG (antibody, V domains shown)
VH: B1 VH with S54H, S56H, L57H, V64H, K65H, G66H
VL: B1 VL with Q88H, D91H, G92H, N93H, T96H, T99H
notes: as for B2
B16: PaB670084 IgG (antibody, V domains shown)
VH: B1 VH with Y53H, S56H, S59H, Y60H, V64H
VL: B1 VL
notes: IgG1-TM (L234F, L235E, P331S), human lambda light chain; also called ZZ1PXA-A05
B17: PaB670153 IgG (antibody, V domains shown)
VH: B1 VH with S54H, S56H, L57H, V64H, K65H, G66H
VL: B1 VL with Q88H, G92H, N93H, P94H, T99H
notes: as for B2
B18: PaB670156 IgG (antibody, V domains shown)
VH: B1 VH with N101H
VL: B1 VL with N93H, P94H, T95H, V101H
notes: as for B2
B19: PaB670143 IgG (antibody, V domains shown)
VH: B1 VH with S54H, S56H, L57H, V64H, K65H, G66H
VL: B1 VL with T96H
notes: as for B2

T1 sequence (P55085 26-75): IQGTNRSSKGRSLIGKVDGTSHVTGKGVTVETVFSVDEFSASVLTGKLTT

One assay has as its target T1, recombinant biotinylated human PAR2 extracellular domain (residues 1-75), N-terminal AviTag, C-terminal Flag … (human, UniProt P55085 26-75, biotin on the AviTag (enzymatic biotinylation)).
T1 construct: also called Bio-human-PAR2 ECD; human PAR2 ECD; not shown: N-terminal AviTag (Avidity LLC); C-terminal Flag and poly Histidine tags
Description: HTRF competition with Dylight650-Par0067 IgG, pH 6.0, IgG. The procedure: (§1) Parent Par0067 IgG (used as a reference/control in all assays) was pre-diluted to give a 2000 nM stock in each of the two different pH assay buffers (in order to give a top final assay IgG concentration of 500 nM). All test, or other reference/control IgG were tested from a top final assay concentration of ¼ of the neat undiluted sample (i.e. no pre-dilution step was performed). Duplicate 11 point 1:3 serial dilutions then were prepared on 384 well polypropylene Greiner plates in each of the two assay buffers (pH 7.4 & 6.0). 5 μl per well was transferred from the relevant pH IgG dilution plate to the corresponding assay plate (pH 7.4 and pH 6.0). 5 ul of the appropriate pH assay buffer was added to the total and non-specific wells.
(§2) For multipoint dose response curves % Specific Binding values were plotted versus test purified antibody concentration (scFv or IgG). IC₅₀ values were determined via a sigmoidal dose response inhibition variable slope curve fit (4 parameter logistic equation) using Graphpad Prism Software.
A general note: TR-FRET usually uses a lanthanide donor and a delayed reading to cut background.
As to B1, the half-maximal inhibitory concentration (IC50) was determined as 0.79 nM.

For the molecule B2, the IC50 amounted to 67.1 nM.

For B3, the IC50 turned out to be 784 nM.

As for B4, the IC50 was found to be 477 nM.

Take B5: the IC50 was determined as 932 nM.

On to B6, for which the IC50 is 13.9 nM.

In the case of B7, the IC50 is 48.2 nM.

Consider B8, for which the IC50 was 906 nM.

With B9, the IC50 stood at 796 nM.

In the case of B10, the concentration for half-maximal inhibition (IC50) turned out to be 25.8 nM.

Regarding B11, the IC50 came out at 1900 nM.

As to B12, the IC50 was determined as 565 nM.

On to B13, for which the IC50 was determined as 6600 nM.

Take B14: the IC50 was 634 nM.

For the molecule B15, the IC50 came to 845 nM.

For the molecule B16, the half-maximal inhibitory concentration (IC50) was determined as 64.6 nM.

Take B17: the half-maximal inhibitory concentration (IC50) turned out to be 1640 nM.

Take B18: the IC50 turned out to be 190 nM.

Consider B19, for which the IC50 amounted to 40 nM.

The target in another assay is T1, recombinant biotinylated human PAR2 …. Nature of the assay: HTRF competition with Dylight650-Par0067 IgG, IgG. The method, then: as §1, §2
For the molecule B1, the “Fold IC50 (pH 6.0 v pH 7.4)” value was found to be 0.95 fold and the “Fold IC50 pH 7.4 (Variant v Par0067)” value stood at 1 fold.

With B2, the “Fold IC50 (pH 6.0 v pH 7.4)” value is 14 fold and the “Fold IC50 pH 7.4 (Variant v Par0067)” value is 5.7 fold.

As to B3, the “Fold IC50 (pH 6.0 v pH 7.4)” value is 8.5 fold and the “Fold IC50 pH 7.4 (Variant v Par0067)” value worked out at 110 fold.

On to B4, for which the “Fold IC50 (pH 6.0 v pH 7.4)” value is 69.8 fold and the “Fold IC50 pH 7.4 (Variant v Par0067)” value amounted to 8.2 fold.

In the case of B5, the “Fold IC50 (pH 6.0 v pH 7.4)” value turned out to be 59 fold and the “Fold IC50 pH 7.4 (Variant v Par0067)” value was 18.9 fold.

B6: the “Fold IC50 (pH 6.0 v pH 7.4)” value stood at 5.9 fold and the “Fold IC50 pH 7.4 (Variant v Par0067)” value was found to be 2.8 fold.

Turning to B7, the “Fold IC50 (pH 6.0 v pH 7.4)” value is 8.5 fold and the “Fold IC50 pH 7.4 (Variant v Par0067)” value was 6.8 fold.

B8: the “Fold IC50 (pH 6.0 v pH 7.4)” value was 79.5 fold and the “Fold IC50 pH 7.4 (Variant v Par0067)” value worked out at 13.7 fold.

For the molecule B9, the “Fold IC50 (pH 6.0 v pH 7.4)” value is 11.5 fold and the “Fold IC50 pH 7.4 (Variant v Par0067)” value stood at 83.2 fold.

Turning to B10, the “Fold IC50 (pH 6.0 v pH 7.4)” value came out at 8.9 fold and the “Fold IC50 pH 7.4 (Variant v Par0067)” value was determined as 3.5 fold.

Take B11: the “Fold IC50 (pH 6.0 v pH 7.4)” value stood at 39.6 fold and the “Fold IC50 pH 7.4 (Variant v Par0067)” value is 57.4 fold.

Take B12: the “Fold IC50 (pH 6.0 v pH 7.4)” value was determined as 19.5 fold and the “Fold IC50 pH 7.4 (Variant v Par0067)” value was 34.7 fold.

Turning to B13, the “Fold IC50 (pH 6.0 v pH 7.4)” value is 15.1 fold and the “Fold IC50 pH 7.4 (Variant v Par0067)” value was 526 fold.

With B14, the “Fold IC50 (pH 6.0 v pH 7.4)” value is 37.5 fold and the “Fold IC50 pH 7.4 (Variant v Par0067)” value amounted to 20.2 fold.

On to B15, for which the “Fold IC50 (pH 6.0 v pH 7.4)” value turned out to be 17.4 fold and the “Fold IC50 pH 7.4 (Variant v Par0067)” value turned out to be 58.1 fold.

Take B16: the “Fold IC50 (pH 6.0 v pH 7.4)” value is 6.3 fold and the “Fold IC50 pH 7.4 (Variant v Par0067)” value was 12.3 fold.

For B17, the “Fold IC50 (pH 6.0 v pH 7.4)” value amounted to 17.6 fold and the “Fold IC50 pH 7.4 (Variant v Par0067)” value was 111 fold.

Turning to B18, the “Fold IC50 (pH 6.0 v pH 7.4)” value came out at 27.2 fold and the “Fold IC50 pH 7.4 (Variant v Par0067)” value is 8.4 fold.

As to B19, the “Fold IC50 (pH 6.0 v pH 7.4)” value stood at 11.8 fold and the “Fold IC50 pH 7.4 (Variant v Par0067)” value amounted to 4 fold.

For a further assay the target is unchanged. Nature of the assay: HTRF competition with Dylight650-Par0067 IgG, pH 7.4, IgG. The method, then:
as §1, §2
As to B1, the half-maximal inhibitory concentration (IC50) is 0.835 nM.

Consider B2, for which the IC50 was 4.8 nM.

Take B3: the IC50 is 91.9 nM.

With B4, the IC50 was found to be 6.8 nM.

For the molecule B5, the IC50 turned out to be 15.8 nM.

Take B6: the IC50 is 2.4 nM.

Consider B7, for which the IC50 worked out at 5.7 nM.

On to B8, for which the IC50 is 11.4 nM.

Take B9: the IC50 was 69.5 nM.

For B10, the IC50 was 2.9 nM.

In the case of B11, the IC50 turned out to be 47.9 nM.

For the molecule B12, the IC50 worked out at 29 nM.

For the molecule B13, the IC50 is 439 nM.

For B14, the IC50 was 16.9 nM.

As to B15, the IC50 amounted to 48.5 nM.

As to B16, the IC50 amounted to 10.3 nM.

For the molecule B17, the concentration for half-maximal inhibition (IC50) was 93 nM.

For B18, the IC50 came out at 7 nM.

Consider B19, for which the IC50 came out at 3.4 nM.

For the origin of these results see patent US20180305450A1 (AstraZeneca / MedImmune, published 2018).
